Results: publication PMC12753105

Legend:
[1] = target: SARS-CoV-2 N-protein N:G215C (reduced), full length (SARS-CoV-2) (UniProt P0DTC9); assay: AUC
[2] = target: SARS-CoV-2 N-protein N:G215C (reduced), full length (SARS-CoV-2) (UniProt P0DTC9); assay: mass photometry
[3] = target: SARS-CoV-2 N-protein N:G215C* (oxidized), full length (SARS-CoV-2) (UniProt P0DTC9); assay: mass photometry
[4] = target: SARS-CoV-2 N-protein N:R203K/G204R, full length (SARS-CoV-2) (UniProt P0DTC9); assay: mass photometry
[5] = target: SARS-CoV-2 N-protein Nο (N:P13L/Δ31–33/R203K/G204R), full length (SARS-CoV-2) (UniProt P0DTC9); assay: mass photometry

Work on “SARS-CoV-2 N-protein N:G215C (reduced), full length (from UniProt P0DTC9 1-419) (natural protein)” yielded a Kd [1] of 1000 nM and a best-fit effective RNP life-time (with SL7 RNA) [2] of 231 s.

Work on “SARS-CoV-2 N-protein N:G215C* (oxidized), full length (from UniProt P0DTC9 1-419) (natural protein)” yielded a best-fit effective RNP life-time (with SL7 RNA) [3] of 41.8 s.

Work on “SARS-CoV-2 N-protein N:R203K/G204R, full length (from UniProt P0DTC9 1-419) (natural protein)” yielded a best-fit effective RNP life-time (with SL7 RNA) [4] of 54.6 s.

Work on “SARS-CoV-2 N-protein Nο (N:P13L/Δ31–33/R203K/G204R), full length (from UniProt P0DTC9 1-419) (natural protein)” yielded a best-fit effective RNP life-time (with SL7 RNA) [5] of 58.5 s.
